B1: Cytoplasmic polyadenylation element-binding protein 2, residues 513 to 575; numbered along this chain, Q7Z5Q1 (parent)
chain: KRVEVKPYVLDDQMCDECQGARCGGKFAPFFCANVTCLQYYCEFCWANIHSRAGREFHKPLVK

Variants of: B1
Assay: abundance fitness (aPCA) (normalised: wild type 0, dead -1); higher = more abundant; growth selection in yeast, the domain comes from the species named
Details: Homo sapiens

Abundance fitness, by site and new letter:
D11: I 0.022; W -0.238; C -0.205; A -0.122; T -0.239; P -0.183; G -0.041; Y -0.112; R -0.068; Q -0.037; V -0.075; F -0.149; E 0.084; S -0.125; L -0.27; M -0.259; N -0.028
Q13: G -0.378; C -0.146; P -0.211; V -0.083; H -0.087; R 0.003; F -0.229; W -0.372; M -0.056; N -0.131; T -0.087; Y -0.217; A -0.017; K 0.161; E -0.358; S -0.144; L -0.291; I -0.197
L10: P -0.028; K 0.1; V -0.106; Q 0.121; M 0.037; G 0.032; H -0.227; F 0.009; R 0.046; C -0.065; I -0.062; N 0.005; W 0.056; T 0.045; E 0.076; Y -0.193
V5: Q 0.077; I -0.113; R 0.005; L -0.136; Y -0.141; A -0.088; T 0.006; C -0.074; P 0.167; E 0.144; W -0.247; M -0.011; S 0.105; F -0.098; N 0.048
P7: G -0.141; M -0.259; W -0.622; L -0.579; V -0.735; D 0.132; A -0.227; K 0.046; T -0.014; H -0.086; I -1.07; N 0.01; Q -0.098; Y -0.405; F -0.413; R -0.125; E 0.051
D12: W -0.225; A -0.117; N -0.019; H 0.049; T -0.168; C -0.305; L -0.288; M -0.189; F -0.312; V -0.221; P -0.107; R -0.182; Q 0.052; K 0.012; G -0.066; S -0.146; Y -0.273
D16: A 0.098
V3: L -0.156; P -0.028; M -0.091; Y -0.37; A 0.059; R -0.1; E 0.084; F -0.197; T 0.167; C -0.945; K 0.112; S 0.013; N -0.207; D 0.107; G -0.1; I -0.041; H -0.039; Q 0.11
V9: A -0.02; S 0.058; L -0.043; E -0.022; G -0.087; N 0.007; M 0.049; P -0.055; H 0.051; R -0.14; I -0.022; T -0.036; D 0.083; Y -0.212; C -0.002; K -0.003; Q 0.096
E4: V -0.223; A -0.15; L -0.322; N -0.15; C -0.353; D -0.132; H -0.363; K -0.239; T -0.111; S -0.185; F -0.208; G -0.234; Q -0.099; P -0.145; I -0.289; Y -0.275; M -0.242
R2: L -0.363; H -0.319; E 0.067; M -0.012; G -0.077; T -0.115; C -0.229; P 0.015; Q -0.028; A -0.096; V -0.187; I 0.048; D 0.001; Y -0.513

From the Human Domainome abundance scans (Beltran et al. 2025)
